Measurements as given in US20100092974A1, “METHODS FOR SCREENING FOR MODULATORS OF CCRL2” (The Board of Trustees of the Leland Stanford Junior …, priority 2008, published 2010).

Tests used:
mCRTH2 = biological target: T1, mCRTH2 (Mus musculus, UniProt Q9Z2J6); assay: immunofluorescence-based chemerin-binding assay, mCRTH2-HA L1.2; settings: 10 nM His8-tagged chemerin, anti-His6 PE
T1 construct: The coding regions of mCCRL2, huCCRL2, mCRTH2, and huCCR10 were amplified from genomic DNA; expressed in transfected cells
T1 sequence (Q9Z2J6 1-382): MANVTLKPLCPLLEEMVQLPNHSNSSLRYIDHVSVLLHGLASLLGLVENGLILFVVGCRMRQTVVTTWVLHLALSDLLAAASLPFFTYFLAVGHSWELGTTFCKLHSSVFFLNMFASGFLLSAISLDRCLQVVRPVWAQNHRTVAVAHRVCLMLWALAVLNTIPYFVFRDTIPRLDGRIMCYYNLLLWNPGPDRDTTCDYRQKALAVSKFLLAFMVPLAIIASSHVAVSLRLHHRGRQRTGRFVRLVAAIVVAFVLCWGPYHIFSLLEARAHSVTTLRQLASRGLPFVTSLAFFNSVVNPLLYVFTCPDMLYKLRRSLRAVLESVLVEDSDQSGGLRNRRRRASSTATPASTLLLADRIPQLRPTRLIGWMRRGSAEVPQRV

CCRL2 = biological target: T2, CCRL2 (Mus musculus, UniProt O35457); assay: radiolabeled chemerin binding to TNFα-treated bEND3 cells; settings: cells treated 24 hours with 20 ng/ml TNFα
T2 construct: TNFα-treated bEND3 cells acquire CCRL2 surface protein (but not CMKLR1 expression); endogenous in cells; host or cells: bEND3 mouse brain endothelioma cells treated 24 h with 20 ng/ml TNFα
T2 sequence (O35457 1-360): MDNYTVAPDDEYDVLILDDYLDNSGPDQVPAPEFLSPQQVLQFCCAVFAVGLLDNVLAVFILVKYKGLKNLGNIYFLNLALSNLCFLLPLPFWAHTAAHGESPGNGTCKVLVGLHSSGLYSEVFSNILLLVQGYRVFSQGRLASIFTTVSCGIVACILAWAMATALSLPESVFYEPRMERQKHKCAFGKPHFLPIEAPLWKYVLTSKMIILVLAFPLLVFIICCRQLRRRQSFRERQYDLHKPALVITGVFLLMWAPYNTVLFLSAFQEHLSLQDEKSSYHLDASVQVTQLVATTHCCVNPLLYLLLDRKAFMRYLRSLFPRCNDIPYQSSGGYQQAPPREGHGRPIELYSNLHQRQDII
Text: FIG. 22. […] Panel A. Robust upregulation of CCRL2 RNA by microarray analysis (Affymetrix®). Panel B. TNFα-treated bEND3 cells acquire CCRL2 surface protein (but not CMKLR1 expression) as determined by mAb staining and flow cytometry. Panel C. […] CCRL2/L1.2 and empty vector pcDNA3/L1.2 transfectants are shown as controls. The mean+/−SD of triplicate wells is shown for an individual experiment. A representative data set of 2 performed with similar results is shown for parts B and C, and n=1 for part A.
The cells were washed in PBS and stained with secondary anti-rat IgG PE or anti-mouse IgE PE (+goat IgG) for 30 min on ice, washed with PBS, stained with directly conjugated F4/80 and c-kit mAbs, and analyzed by flow cytometry. […] For competition binding assays, L1.2 cells transfected with huCCRL2, mCCRL2, or mCMKLR1 were plated into 96-well plates at 0.5×10^6 cells/well. […]. For saturation binding assays, mCCRL2/L1.2 cells were plated at 0.5×10^6 cells/well. […] Binding was terminated by washing the cells in saline buffer, and bound radioactivity was measured. Data were analyzed using Prism (GraphPad Software). Binding data (triplicate or quadruplicate wells) were fitted to one-site binding hyperbola for saturation assays, or to a one-site competition curve for competition assays. […] […].

huCCRL2 = biological target: T3, huCCRL2 (Homo sapiens, UniProt O00421); assay: in vitro transwell chemotaxis, huCCRL2-HA/L1.2 transfectants; assay type: cell-based; settings: range of doses; CXCL12 and CCL19 act via endogenous CXCR4 and CCR7
T3 construct: The coding regions of mCCRL2, huCCRL2, mCRTH2, and huCCR10 were amplified from genomic DNA; expressed in transfected cells
T3 sequence (O00421 1-344): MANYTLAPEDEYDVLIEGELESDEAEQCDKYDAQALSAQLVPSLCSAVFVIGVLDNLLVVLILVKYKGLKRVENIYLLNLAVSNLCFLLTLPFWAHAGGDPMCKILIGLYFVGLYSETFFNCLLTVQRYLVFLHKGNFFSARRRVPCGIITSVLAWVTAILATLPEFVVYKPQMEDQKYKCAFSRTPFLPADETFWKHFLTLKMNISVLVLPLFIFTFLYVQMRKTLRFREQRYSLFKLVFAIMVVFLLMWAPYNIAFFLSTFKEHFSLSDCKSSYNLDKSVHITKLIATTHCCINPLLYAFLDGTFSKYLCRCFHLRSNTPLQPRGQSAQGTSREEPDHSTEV
Experimental: For migration experiments using cell lines, 2.5×10^5 cells/100 μl chemotaxis media (RPMI+10% fetal calf serum) were added to the top wells of 5-um pore transwell inserts (Costar, Corning, N.Y., USA), and test samples in 600 μl media were added to the bottom wells. After incubating the transwell plates for 1.5 hours at 37° C., the bottom wells were harvested and flow cytometry was used to assess migration. For primary cell chemotaxis, 1×10^6 cells/100 μl were added to the top well, and, following a 2 hour incubation at 37° C., polystyrene beads (15.0 μm diameter, Polysciences, Warrington, Pa., USA) were added to each well to facilitate normalization of the cell count. The cells were then stained for c-kit, F4/80, and/or CD11b expression and analyzed by flow cytometry. A ratio was generated and percent input migration was calculated.

mCCRL2 = biological target: T4, mCCRL2 (Mus musculus, UniProt O35457); assay: intracellular calcium mobilization, CCRL2/HEK293 transfectants; assay type: cell-based; settings: HEK293 background, alone or in combination
T4 construct: The coding regions of mCCRL2, huCCRL2, mCRTH2, and huCCR10 were amplified from genomic DNA; expressed in transfected cells
T4 sequence (O35457 1-360): T2 sequence (O35457 1-360)
Experimental: Chemoattractant-stimulated Ca^2+-mobilization was performed following Alliance for Cell Signaling protocol ID PP00000210. Cells (3×10^6/mL) were loaded with 4 μM Fluo4-AM and 0.16% Pluronic acid F-127 (Molecular Probes) in modified Iscove's medium (Iscove's medium with 1% heat inactivated bovine calf serum and 2 mM L-glutamine, Invitrogen) for 30 minutes at 37° C. The samples were mixed every 10 minutes during loading, washed once, resuspended at up to 2×10^6/mL in the same buffer, and allowed to rest in the dark for 30 minutes at room temperature. Chemoattractant-stimulated change in Ca^2+-sensitive fluorescence of Fluo-4 was measured over real-time with a FACsScan flow cytometer and CellQuest software (BD Biosciences) at room temperature under constant stirring (500 rpm). Fluorescent data were acquired continuously up to 1024 seconds at 1-second intervals. The samples were analyzed for 45 seconds to establish basal state, removed from the nozzle to add the stimuli, and then returned to the nozzle. Mean channel fluorescence over time was analyzed with FlowJo (TreeStar, Ashland, Oreg., USA) software. […] 500 μl of these chemerin-loaded cells were added to mCMKLR1/L1.2 cells loaded with Fluo4-AM, and calcium mobilization was evaluated.

chemerin: protein ligand for signaling receptor CMKLR1; serum form human chemerin expressed in baculovirus-infected insect cells, His8-tag removed
chemerin binding (mCRTH2): did not bind | chemerin binding to TNFα-treated bEND3 cells (CCRL2): bind | transwell migration (huCCRL2): neither human nor mouse CCRL2-HA/L1.2 transfectants migrated | agonism, intracellular calcium mobilization (mCCRL2): neither CCL2 nor chemerin functioned as agonists
